Experiments:
Test in all cases: ELISA, antigen coated at 1 ug/ml, binder titrated from 10 ug/ml, OD450
CD3-B7RP-1 BsM_M = biological target: T1, CD3-B7RP-1 BsM_M
T1 construct: N-glycosylated on the B7RP-1 part; also called anti-CD3/B7RP-1 bispecific molecule of monomeric form

CD3-B7RP-1 BsM_D = biological target: T2, CD3-B7RP-1 BsM_D
T2 construct: glycosylated, disulfide-linked dimer; also called anti-CD3/B7RP-1 bispecific molecule of dimeric form

CD3-OX40L BsM_D = biological target: T3, CD3-OX40L BsM_D
T3 construct: glycosylated, disulfide-linked dimer; also called anti-CD3/OX40L bispecific molecule of dimeric form

CD3-OX40L BsM_M = biological target: T4, CD3-OX40L BsM_M
T4 construct: N-glycosylated; also called anti-CD3/OX40L bispecific molecule of monomeric form

CD3-GITRL BsM_M = biological target: T5, CD3-GITRL BsM_M
T5 construct: glycosylated; also called anti-CD3/GITRL bispecific molecule of monomeric form

CD3-GITRL BsM_D = biological target: T6, CD3-GITRL BsM_D
T6 construct: glycosylated, disulfide-linked dimer; also called anti-CD3/GITRL bispecific molecule of dimeric form

CD3-CD70 BsM_M = biological target: T7, CD3-CD70 BsM_M
T7 construct: N-glycosylated; also called anti-CD3/CD70 bispecific molecule of monomeric form

CD3-CD70 BsM_D = biological target: T8, CD3-CD70 BsM_D
T8 construct: glycosylated, disulfide-linked dimer; also called anti-CD3/CD70 bispecific molecule of dimeric form

B1: human ICOS-hFc recombinant protein (Fc fusion)
chain: EINGSANYEMFIFHNGGVQILCKYPDIVQQFKMQLLKGGQILCDLTKTKGSGNTVSIKSLKFCHSQLSNNSVSFFLYNLDHSHANYYFCNLSIFDPPPFKVTLTGGYLHIYESQLCCQLK
notes: Purchased from Novoprotein; also called ICOS-hFc recombinant antigen; not shown: human Fc (hFc) of the purchased fusion
CD3-B7RP-1 BsM_M
  binding result: binds
CD3-B7RP-1 BsM_D
  binding result: binds

B2: human OX40-hFc recombinant protein (Fc fusion)
chain: LHCVGDTYPSNDRCCHECRPGNGMVSRCSRSQNTVCRPCGPGFYNDVVSSKPCKPCTWCNLRSGSERKQLCTATQDTVCRCRAGTQPLDSYKPGVDCAPCPPGHFSPGDNQACKPWTNCTLAGKHTLQPASNSSDAICEDRDPPATQPQETQGPPARPITVQPTEAWPRTSQGPSTRPVEVPGGRA
notes: Purchased from Novoprotein; also called OX40-hFc recombinant antigen; not shown: human Fc (hFc) of the purchased fusion
CD3-OX40L BsM_D
  binding result: binds
CD3-OX40L BsM_M
  binding result: binds

B3: human GITR-hFc recombinant protein (Fc fusion)
chain: QRPTGGPGCGPGRLLLGTGTDARCCRVHTTRCCRDYPGEECCSEWDCMCVQPEFHCGDPCCTTCRHHPCPPGQGVQSQGKFSFGFQCIDCASGTFSGGHEGHCKPWTDCTQFGFLTVFPGNKTHNAVCVPGSPPAE
notes: Purchased from Novoprotein; also called GITR-hFc recombinant antigen; not shown: human Fc (hFc) of the purchased fusion
CD3-GITRL BsM_M
  binding result: binds
CD3-GITRL BsM_D
  binding result: binds

B4: human CD27-hFc recombinant protein (Fc fusion)
chain: TPAPKSCPERHYWAQGKLCCQMCEPGTFLVKDCDQHRKAAQCDPCIPGVSFSPDHHTRPHCESCRHCNSGLLVRNCTITANAECACRNGWQCRDKECTECDPLPNPSLTARSSQALSPHPQPTHLPYVSEMLEARTAGHMQTLADFRQLPARTLSTHWPPQRSLCSSDFIR
notes: Purchased from Novoprotein; also called CD27-hFc recombinant antigen; not shown: human Fc (hFc) of the purchased fusion
CD3-CD70 BsM_M
  binding result: binds
CD3-CD70 BsM_D
  binding result: binds
